Test results published in article PMC2932714 (PLoS ONE, 2010).

Biological target: the molecule itself
Test: thioflavin T fluorescence + atomi

B1: Ure2 (yeast prion protein Ure2, Saccharomyces cerevisiae) (natural protein, UniProt P23202 1-354, looked up)
chain: MMNNNGNQVSNLSNALRQVNIGNRNSNTTTDQSNINFEFSTGVNNNNNNNSSSNNNNVQNNNSGRNGSQNNDNENNIKNTLEQHRQQQQAFSDMSHVEYSRITKFFQEQPLEGYTLFSHRSAPNGFKVAIVLSELGFHYNTIFLDFNLGEHRAPEFVSVNPNARVPALIDHGMDNLSIWESGAILLHLVNKYYKETGNPLLWSDDLADQSQINAWLFFQTSGHAPMIGQALHFRYFHSQKIASAVERYTDEVRRVYGVVEMALAERREALVMELDTENAAAYSAGTTPMSQSRFFDYPVWLVGDKLTIADLAFVPWNNVVDRIGINIKIEFPEVYKWTKHMMRRPAVIKALRGE
notes: Ure2, Saccharomyces cerevisiae; the introduction describes it as a 354-amino acid homodimeric protein; It starts as the native dimer and assembles into protofibrils and mature fibrils on incubation at 4°C; also called WT Ure2; native Ure2; source: Escherichia coli, purified under native conditions
Question: Does B1 bind?
Answer: binds
